From patent US20190170753A1 (ICAHN SCHOOL OF MEDICINE AT MOUNT SINAI, published 2019)
Where no end group is shown, it is not given here.

Tests used:
[1] = molecular target: T1, HCV core peptide 32 (hepatitis C virus, N-terminal biotin; C-terminal amide); test: peptide EIA, 2 ug/mL IgG;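 also: purified mouse IgG binding to individually well-coated synthetic peptides, detected with peroxidase anti-mouse IgG Fc and o-phenylenediamine, IgG incubated at least 1 h at room temperature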
T1 construct: range 63-77

[2] = molecular target: T2, HCV core peptide 68 (hepatitis C virus, N-terminal biotin; C-terminal amide); test: peptide EIA, 2 ug/mL IgG;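 also: purified mouse IgG binding to individually well-coated synthetic peptides, detected with peroxidase anti-mouse IgG Fc and o-phenylenediamine, IgG incubated at least 1 h at room temperature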
T2 construct: range 135-149

[3] = molecular target: T3, HCV core peptide 43 (hepatitis C virus, N-terminal biotin; C-terminal amide); test: peptide EIA, 2 ug/mL IgG;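 also: purified mouse IgG binding to individually well-coated synthetic peptides, detected with peroxidase anti-mouse IgG Fc and o-phenylenediamine, IgG incubated at least 1 h at room temperature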
T3 construct: range 85-99

[4] = molecular target: HCV core peptide 80 (hepatitis C virus, N-terminal biotin; C-terminal amide); test: peptide EIA, 2 ug/mL IgG;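 also: purified mouse IgG binding to individually well-coated synthetic peptides, detected with peroxidase anti-mouse IgG Fc and o-phenylenediamine, IgG incubated at least 1 h at room temperature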
[5] = molecular target: HCV core peptide 70 (hepatitis C virus, N-terminal biotin; C-terminal amide); test: peptide EIA, 2 ug/mL IgG
[6] = molecular target: HCV core peptide 47 (hepatitis C virus, N-terminal biotin; C-terminal amide); test: peptide EIA, 2 ug/mL IgG
[7] = molecular target: HCV core peptide 71 (hepatitis C virus, N-terminal biotin; C-terminal amide); test: peptide EIA, 2 ug/mL IgG
[8] = molecular target: T4, HCV core peptide 61 (hepatitis C virus, N-terminal biotin; C-terminal amide); test: peptide EIA, 2 ug/mL IgG
T4 construct: range 121-135

[9] = molecular target: T5, HCV core peptide 39 (hepatitis C virus, N-terminal biotin; C-terminal amide); test: peptide EIA, 2 ug/mL IgG
T5 construct: range 77-91

[10] = molecular target: T6, HCV core peptide 16 (hepatitis C virus, N-terminal biotin; C-terminal amide); test: peptide EIA, 2 ug/mL IgG
T6 construct: range 31-45

[11] = molecular target: HCV core peptide 60 (hepatitis C virus, N-terminal biotin; C-terminal amide); test: peptide EIA, 2 ug/mL IgG
[12] = molecular target: HCV core peptide 67 (hepatitis C virus, N-terminal biotin; C-terminal amide); test: peptide EIA, 2 ug/mL IgG
[13] = molecular target: HCV core peptide 65 (hepatitis C virus, N-terminal biotin; C-terminal amide); test: peptide EIA, 2 ug/mL IgG
[14] = molecular target: T7, WT1STHV biotin labeled HCV core peptide (hepatitis C virus, biotin labeled (position not given)); test: capture EIA; Ab 31.25 ng/mL; bt-peptide 500 ng/mL
T7 peptide: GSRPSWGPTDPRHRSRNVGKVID

[15] = molecular target: T8, C113T109N biotin labeled HCV core peptide (hepatitis C virus, also: biotin labeled, position not given here); test: capture EIA; Ab 31.25 ng/mL; bt-peptide 500 ng/mL
T8 construct: also called C113T110N
T8 peptide: RGSRPSWGPND

[16] = molecular target: T9, 92-133 biotin labeled HCV core peptide (hepatitis C virus, UniProt Q9WMX2 92-133, chain 1: biotin label (bt-pep). Its position and any spacer are not visible in the passages shown.); test: capture EIA; Ab 31.25 ng/mL; bt-peptide 500 ng/mL
T9 construct: Only the label 92-133 is printed
T9 peptide: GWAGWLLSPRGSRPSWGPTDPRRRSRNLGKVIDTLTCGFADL
Protocol: Assay wells were coated with sheep anti-mouse IgG Fc specific antibody and incubated overnight. The coating solution was then removed; the wells blocked using BSA/tween in PBS and then washed with dH2O. […] Next, biotin labeled peptides (diluted to 500 ng/mL in block) were added, the plates incubated for 10 minutes while shaking at 700 rpm and then washed. Peroxidase conjugated streptavidin (diluted to 200 ng/mL in block) was then added to all assay wells, incubated for 20 minutes while shaking at 700 rpm and then washed. Finally, color was developed using OPD and signal quenched using 1N H₂SO₄. Signal was read at 492 nm.

[17] = molecular target: T10, Mut1T110N biotin labeled HCV core peptide (hepatitis C virus, biotin labeled (position not given)); test: capture EIA; Ab 31.25 ng/mL; bt-peptide 500 ng/mL
T10 peptide: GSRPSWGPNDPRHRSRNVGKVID

[18] = molecular target: Mut6T110S biotin labeled HCV core peptide (hepatitis C virus, biotin labeled (position not given)); test: capture EIA; Ab 31.25 ng/mL; bt-peptide 500 ng/mL
[19] = molecular target: T11, C113WT biotin labeled HCV core peptide (hepatitis C virus, also: biotin labeled, position not given here); test: capture EIA; Ab 31.25 ng/mL; bt-peptide 500 ng/mL
T11 peptide: RGSRPSWGPTD

B1: Neo4 mouse monoclonal antibody (antibody, V domains shown)
VH: QIQLKESGPAVIKPSQSLSLTCIVSGFSITSSVYCWQWIRQPPGKGLEWMGRICYDGSVDYSPSITSRGTISRDTSLNKVFFQLSSVTNEDTAMYYCSRENHIDYYDTTYPSFDVWGAGTTVTVSS
VL: DIVLTQSPASLIVSLGQRATISCRASKSVNEYGYTYMHWYQQKPGLPPKLLIYLASNLDSGVPARFSGSGSGTDFTLNIHPVEEEDAATYYCQHSRELPYTFGGGTKLEIKR
notes: Mouse hybridoma antibody, isotype IgG1, purified with Protein G; also called HCV Neo4
**Q.** With B1 as the binder, how does the “OD (A492 nm)” value [1] read?
**A.** 0.06 OD

**Q.** What about the “OD (A492 nm)” value [2] of the same binder?
**A.** 0.04 OD

**Q.** What about the “OD (A492 nm)” value [3] of the same binder?
**A.** 0.05 OD

**Q.** And the “OD (A492 nm)” value [4]?
**A.** 0.05 OD

**Q.** And the “OD (A492 nm)” value [5]?
**A.** 0.04 OD

**Q.** And the “OD (A492 nm)” value [6]?
**A.** 0.05 OD

**Q.** And the “OD (A492 nm)” value [7]?
**A.** 0.05 OD

**Q.** And the “OD (A492 nm)” value [8]?
**A.** 0.05 OD

**Q.** And the “OD (A492 nm)” value [9]?
**A.** 0.05 OD

**Q.** What about the “OD (A492 nm)” value [10] of the same binder?
**A.** 0.06 OD

**Q.** What about the “OD (A492 nm)” value [11] of the same binder?
**A.** 0.06 OD

**Q.** What about the “OD (A492 nm)” value [12] of the same binder?
**A.** 0.05 OD

**Q.** And the “OD (A492 nm)” value [13]?
**A.** 0.04 OD

**Q.** And the “signal at 492 nm” value [14]?
**A.** 1.67 A492

**Q.** What about the “signal at 492 nm” value [15] of the same binder?
**A.** 0.0815 A492

**Q.** What about the “signal at 492 nm” value [16] of the same binder?
**A.** 1.11 A492

**Q.** What about the “signal at 492 nm” value [17] of the same binder?
**A.** 0.0938 A492

**Q.** And the “signal at 492 nm” value [18]?
**A.** 0.48 A492

**Q.** And the “signal at 492 nm” value [19]?
**A.** 0.0622 A492
